Measurements reported in the supplement of paper PMC9732359.
± gives the uncertainty stated by the source.

Assay: protein stability index of a GFP-peptide fusion (yeast GPS) (PSI 1-4); higher = more stable; sorted into four equal gates, so the index is relative within each strain
Method in brief: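 Yeast carrying a pooled library were grown to mid-log phase in leucine-free medium. Each library plasmid expresses Cherry and has a tiled 17-residue yeast protein peptide fused downstream of GFP. Cells were sorted into four equal gates by GFP/Cherry ratio, and plasmids from each gate were PCR-amplified, Illumina-sequenced and assigned to strains by barcode. Summing, across gates, the read frequency times the gate number gave each peptide's protein stability index.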

| Sequence | protein stability index (doa10∆) | protein stability index (pdr5∆) | protein stability index (san1∆) | protein stability index (ubr1∆) |
| --- | --- | --- | --- | --- |
| CLNTQRGDSTETSSFGS [RRI1] | 3.61 ± 0.14 | 3.25 ± 0.17 | 3.37 ± 0.084 | 3.56 ± 0.17 |
| AFSFGAKSNEDKQDGTA [YJL041W/NSP1] | 3.24 ± 0.13 | 2.98 ± 0.16 | 3 ± 0.2 | 3.44 ± 0.14 |
| EDITEPKPDKPSGRTRG [ESC2] | 3.07 ± 0.15 | 2.96 ± 0.14 | 3.07 ± 0.11 | 3.26 ± 0.1 |
| QMMQQAQQKLKQNPGLM [SRP54] | 2.83 ± 0.08 | 3.07 ± 0.082 | 3.12 ± 0.055 | 3.119 ± 0.031 |
| TNLYKLKEERAIEPETF [PUP3] | 3.16 ± 0.12 | 2.97 ± 0.13 | 3.45 ± 0.066 | 3.25 ± 0.097 |
| IDPSVTMMTVEEKPDVT [RPT1] | 2.62 ± 0.097 | 2.58 ± 0.059 | 1.93 ± 0.13 | 2.38 ± 0.05 |
| FEGTDDNEEASVKLDLQ [BRN1] | 3.2 ± 0.17 | 3.65 ± 0.11 | 3.49 ± 0.096 | 3.35 ± 0.098 |
| KSDSQYRFYEYIYSQET [MED1] | 2.81 ± 0.068 | 2.44 ± 0.061 | 2.74 ± 0.12 | 2.58 ± 0.07 |
| EMIDSHIKEASEEVDDL [SNF2] | – | 2.81 ± 0.19 | 2.81 ± 0.094 | 3.09 ± 0.07 |
| ARGMTSKPAGFMKKLRA [RPS15] | 3.15 ± 0.16 | – | 2.64 ± 0.26 | 3.6 ± 0.14 |
| DYIEFNITFSEELVSLA [YJL039C/NUP192] | – | – | 1.54 ± 0.27 | 1.61 ± 0.28 |
| NVNSRNQLVEPNRIKLS [SRB5] | 2.29 ± 0.061 | 2.43 ± 0.052 | 2.48 ± 0.059 | 2.19 ± 0.036 |
| TQMDGFDQSTNVKVIMA [RPT3] | 2.28 ± 0.062 | 2.35 ± 0.06 | 1.54 ± 0.077 | 2.31 ± 0.061 |
| GKVRLWKATYSNEFKCM [YGL100W/SEH1] | 2 ± 0.041 | 1.84 ± 0.053 | 1.78 ± 0.048 | 2.22 ± 0.03 |
| EEYVINLLKVSVDICNN [ECM29] | 2.15 ± 0.064 | 2.58 ± 0.063 | 2.7 ± 0.048 | 2.65 ± 0.053 |
| PKDPSNVETYEQILQWV [BRR2] | 2.77 ± 0.079 | 2.48 ± 0.098 | 2.91 ± 0.11 | 2.88 ± 0.12 |
| VSANTPKSLNSNININV [SWI1] | 3.14 ± 0.11 | 2.64 ± 0.12 | 2.84 ± 0.12 | 2.87 ± 0.093 |
| LGKTIQTISLLTYLYEM [SNF2] | 1.72 ± 0.093 | 2.5 ± 0.087 | 2.47 ± 0.081 | 2.38 ± 0.076 |
| VGVENNGQYAAFVKDMQ [RPC37] | 3.21 ± 0.12 | 2.79 ± 0.15 | 3.19 ± 0.092 | 3.41 ± 0.1 |
| IQHVGMINGRKLIKFET [FAS1] | 2.82 ± 0.072 | 2.85 ± 0.074 | 3.05 ± 0.085 | 2.81 ± 0.041 |
| KTQCPNYDTCGGESAYF [RPC11] | 3.21 ± 0.16 | 2.81 ± 0.26 | 3.24 ± 0.073 | 2.94 ± 0.15 |
| ENVGTRLLPINVNKKAL [MED11] | 2.87 ± 0.18 | 2.65 ± 0.13 | 2.89 ± 0.094 | 2.98 ± 0.22 |

| Sequence | protein stability index (doa10∆) | protein stability index (pdr5∆) | protein stability index (san1∆) | protein stability index (ubr1∆) |
| --- | --- | --- | --- | --- |
| VLKFLTDLEKKHLWDQK [RPC17] | 3.14 ± 0.24 | 3.41 ± 0.16 | 3.18 ± 0.14 | 3.47 ± 0.14 |
| KRKVLELKKKRKIKRLE [SRP72] | 3.24 ± 0.077 | 3.2 ± 0.095 | 3.38 ± 0.1 | 3.29 ± 0.058 |
| SGRTVISPDPNLSIDEV [RPO31] | 2.4 ± 0.063 | 1.97 ± 0.06 | 2.03 ± 0.099 | 1.92 ± 0.057 |
| RKKRTRRLKRKRRKVRA [RPL41A] | 3.14 ± 0.16 | 3.21 ± 0.13 | 3.15 ± 0.12 | 3.17 ± 0.086 |
| NYIINDIKKNNKIKLNI [SRB8] | 3.16 ± 0.096 | 3.1 ± 0.16 | 3.04 ± 0.2 | 3.35 ± 0.2 |
| ATNANATTDQEGDIHLE [PRE10] | 3.35 ± 0.23 | 3.39 ± 0.14 | 3.33 ± 0.036 | 3.11 ± 0.12 |
| GNKALEDEEEFSIFNYF [RPC34] | 3.21 ± 0.13 | 3.37 ± 0.14 | – | – |
| TFLKYFGWLLSDNSVSV [IRR1] | 2.67 ± 0.14 | 2.4 ± 0.11 | 2.24 ± 0.097 | 2.66 ± 0.11 |
| QSKLKDVVEYLDKVINK [RPN8] | 2.73 ± 0.094 | 2.32 ± 0.055 | 2.63 ± 0.073 | 2.55 ± 0.046 |
| DDHSQVINPQQLLKGLS [DSN1] | 3.17 ± 0.1 | 2.98 ± 0.084 | 3.03 ± 0.057 | 3.01 ± 0.068 |
| LEQMELSILKGDYSQAT [RPN5] | 2.86 ± 0.079 | 2.91 ± 0.068 | 2.94 ± 0.11 | 2.64 ± 0.062 |
| GAALKDIEIVRVNKNAP [FAS2] | 3.09 ± 0.092 | 3.24 ± 0.12 | 3.21 ± 0.089 | 3.31 ± 0.084 |
| VQGKNLLTNFHGMDFTT [RPS1A] | 3.42 ± 0.078 | 3.42 ± 0.055 | 3.22 ± 0.045 | 3.23 ± 0.052 |
| QLASQLVDLKKELAELK [RPL35A] | 3.37 ± 0.26 | 3.68 ± 0.27 | 3.21 ± 0.066 | 3.35 ± 0.078 |
| GLMSANNIIAEGIEKMG [FAS2] | 1.68 ± 0.12 | 1.74 ± 0.098 | 1.58 ± 0.18 | 1.48 ± 0.084 |
| STISAREIQTAVRLILP [HTB1] | 2.13 ± 0.11 | 2.31 ± 0.12 | 2.52 ± 0.087 | 2.38 ± 0.074 |
| ISVSSRSDREYPLLIRM [SRP14] | 2.56 ± 0.097 | 2.44 ± 0.1 | 1.94 ± 0.13 | 2.34 ± 0.072 |
| GVILMFAAILVLLVLPF [COB] | 2.69 ± 0.062 | 1.34 ± 0.05 | 1.25 ± 0.065 | 1.14 ± 0.046 |
| YLDQHKRTRLESLKNLN [SMC3] | 2.11 ± 0.097 | 2.23 ± 0.083 | 1.7 ± 0.098 | 2.58 ± 0.21 |
| RSISKELIVSEEIPINS [SIR3] | 2.07 ± 0.051 | 2.09 ± 0.051 | 2.07 ± 0.07 | 1.99 ± 0.036 |
| ARQFGYVILTTSAGIMD [RPS22A] | 1.37 ± 0.048 | 1.33 ± 0.045 | 1.17 ± 0.094 | 1.25 ± 0.037 |
| QLVIQQGTGKKTASLGN [ISW2] | 3.2 ± 0.24 | 2.83 ± 0.21 | 3.23 ± 0.21 | 3.41 ± 0.24 |
